Experimental findings from patent US20250197889 are described below.

In series [1] the test system is certain anti-CRISPRs.
In series [2] the test system is AcrE2.
Series [3] has as its system AcrIIC1Nme.
In series [4] the test system is AcrIIC2Nme.
The test system of series [5] is AcrIIC3Nme.
Series [6] relates to AcrIIC4Hpa.
For series [7], the system named is AcrIIC5Smu.

For the substance SmuCas9 (Simonsiella muelleri Cas9), the “Type II-C Cas9 ortholog cleavage tested for sensitivity to anti-CRISPR proteins” value in series [1] is reported as “all three Type II-C Cas9 orthologs are inhibited by certain anti-CRISPRs”.

For “Nme2Cas9 (Neisseria meningitidis strain De10444/De11444 Cas9), recombinant purified protein”, in series [2], the “in vitro cleavage of a target DNA by Cas9-sgRNA (10:1 ratio of Acr:Cas9)” value is “Nme2Cas9 efficiently cleaves a target containing a protospacer with an N4CC PAM in the presence of AcrE2 and AcrIIC5Smu”. Further, the “in vitro cleavage of a target DNA by Cas9-sgRNA (10:1 Acr:Cas9 molar ratio)” value in series [3] was “Acrs IIC1Nme, -IIC2Nme, -IIC3Nme and -IIC4Hpa inhibited Nme2Cas9 gene editing activity”; in series [4], “Acrs IIC1Nme, -IIC2Nme, -IIC3Nme and -IIC4Hpa inhibited Nme2Cas9 gene editing activity”; in series [5] it was “Acrs IIC1Nme, -IIC2Nme, -IIC3Nme and -IIC4Hpa inhibited Nme2Cas9 gene editing activity”; in series [6] it was “Acrs IIC1Nme, -IIC2Nme, -IIC3Nme and -IIC4Hpa inhibited Nme2Cas9 gene editing activity”; in series [7], “AcrIIC5Smu did not inhibit Nme2Cas9 in vitro even at 10-fold excess”.

On to Nme1Cas9-Nme2Cas9PID chimera, for which the “in vitro cleavage by the Nme1Cas9-Nme2Cas9PID chimera in the presence of Acr” value in series [7] was “no inhibition by AcrIIC5Smu on this protein chimera was observed”.
